The values that follow come from publication PMC12804361.

Experiment [1] addresses VcCap5. In words: AUC; sedimentation velocity, VcCap5 with 3'2'-cGAMP, 0.8 mg/ml, 20 mM Tris-HCl pH 7.5, 200 mM NaCl, 55,000 rpm, 20 °C; c(s) fit in SEDFIT; dimer to tetramer.
The target of experiment [2] is VcCap5. Nature of the experiment: AUC; sedimentation velocity, apo VcCap5 at 0.8 mg/ml, 20 mM Tris-HCl pH 7.5, 200 mM NaCl, 55,000 rpm, 20 °C; c(s) fit in SEDFIT; monomer to dimer.

For VcCap5 (enzyme), the stoichiometry N was 4 with VcCap5 [1] and 2 with VcCap5 [2].
